B1: Tesmin (Homo sapiens), Q9Y4I5 (parent)
chain: MEEGPLPGGLPSPEDAMVTELLSPEGPFASENIGLKAPVKYEEDEFHVFKEAYLGPADPKEPVLHAFNPALGADCKGQVKAKLAGGDSDGGELLGEYPGIPELSALEDVALLQAPQPPACNVHFLSSLLPAHRSPAVLPLGAWVLEGASHPGVRMIPVEIKEAGGTTTSNNPEEATLQNLLAQESCCKFPSSQELEDASCCSLKKDSNPMVICQLKGGTQMLCIDNSRTRELKALHLVPQYQDQNNYLQSDVPKPMTALVGRFLPASTKLNLITQQLEGALPSVVNGSAFPSGSTLPGPPKITLAGYCDCFASGDFCNNCNCNNCCNNLHHDIERFKAIKACLGRNPEAFQPKIGKGQLGNVKPQHNKGCNCRRSGCLKNYCECYEAQIMCSSICKCIGCKNYEESPERKTLMSMPNYMQTGGLEGSHYLPPTKFSGLPRFSHDRRPSSCISWEVVEATCACLLAQGEEAEKEHCSKCLAEQMILEEFGRCLSQILHTEFKSKGLKME
B2: Mineralocorticoid receptor (Homo sapiens), P08235 (parent)
chain: METKGYHSLPEGLDMERRWGQVSQAVERSSLGPTERTDENNYMEIVNVSCVSGAIPNNSTQGSSKEKQELLPCLQQDNNRPGILTSDIKTELESKELSATVAESMGLYMDSVRDADYSYEQQNQQGSMSPAKIYQNVEQLVKFYKGNGHRPSTLSCVNTPLRSFMSDSGSSVNGGVMRAVVKSPIMCHEKSPSVCSPLNMTSSVCSPAGINSVSSTTASFGSFPVHSPITQGTPLTCSPNVENRGSRSHSPAHASNVGSPLSSPLSSMKSSISSPPSHCSVKSPVSSPNNVTLRSSVSSPANINNSRCSVSSPSNTNNRSTLSSPAASTVGSICSPVNNAFSYTASGTSAGSSTLRDVVPSPDTQEKGAQEVPFPKTEEVESAISNGVTGQLNIVQYIKPEPDGAFSSSCLGGNSKINSDSSFSVPIKQESTKHSCSGTSFKGNPTVNPFPFMDGSYFSFMDDKDYYSLSGILGPPVPGFDGNCEGSGFPVGIKQEPDDGSYYPEASIPSSAIVGVNSGGQSFHYRIGAQGTISLSRSARDQSFQHLSSFPPVNTLVESWKSHGDLSSRRSDGYPVLEYIPENVSSSTLRSVSTGSSRPSKICLVCGDEASGCHYGVVTCGSCKVFFKRAVEGQHNYLCAGRNDCIIDKIRRKNCPACRLQKCLQAGMNLGARKSKKLGKLKGIHEEQPQQQQPPPPPPPPQSPEEGTTYIAPAKEPSVNTALVPQLSTISRALTPSPVMVLENIEPEIVYAGYDSSKPDTAENLLSTLNRLAGKQMIQVVKWAKVLPGFKNLPLEDQITLIQYSWMCLSSFALSWRSYKHTNSQFLYFAPDLVFNEEKMHQSAMYELCQGMHQISLQFVRLQLTFEEYTIMKVLLLLSTIPKDGLKSQAAFEEMRTNYIKELRKMVTKCPNNSGQSWQRFYQLTKLLDSMHDLVSDLLEFCFYTFRESHALKVEFPAMLVEIISDQLPKVESGNAKPLYFHRK
partner: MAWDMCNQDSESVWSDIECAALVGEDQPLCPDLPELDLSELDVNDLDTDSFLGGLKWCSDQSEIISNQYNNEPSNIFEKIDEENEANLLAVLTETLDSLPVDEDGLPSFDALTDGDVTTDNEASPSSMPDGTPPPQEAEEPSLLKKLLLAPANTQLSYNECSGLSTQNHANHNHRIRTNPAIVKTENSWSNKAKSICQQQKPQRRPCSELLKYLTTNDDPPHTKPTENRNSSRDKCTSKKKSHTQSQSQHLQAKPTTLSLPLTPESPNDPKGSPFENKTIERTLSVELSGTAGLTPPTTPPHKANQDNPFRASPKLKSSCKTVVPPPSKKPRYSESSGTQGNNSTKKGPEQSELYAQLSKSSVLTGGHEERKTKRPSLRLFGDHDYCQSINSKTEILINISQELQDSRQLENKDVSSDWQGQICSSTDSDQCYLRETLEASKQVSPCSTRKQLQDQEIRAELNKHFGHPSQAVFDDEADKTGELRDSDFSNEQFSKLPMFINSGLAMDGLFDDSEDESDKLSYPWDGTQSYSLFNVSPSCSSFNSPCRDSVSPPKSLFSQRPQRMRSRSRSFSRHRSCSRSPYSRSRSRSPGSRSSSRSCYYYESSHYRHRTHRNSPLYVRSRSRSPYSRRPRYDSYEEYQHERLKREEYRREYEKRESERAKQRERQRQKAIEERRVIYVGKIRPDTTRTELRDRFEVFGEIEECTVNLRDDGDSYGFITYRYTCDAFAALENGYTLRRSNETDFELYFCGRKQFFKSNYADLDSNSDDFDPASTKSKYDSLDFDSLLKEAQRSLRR
B3: Mineralocorticoid receptor (Homo sapiens), P08235 (parent)
chain: B2 chain
partner: B1 chain

One test covers variants of B1. Particulars: with mcr_human NR3C2, P08235.
Consider MEEGPLPGGLPSPEDAMVTELLSPEGPFASENIGLKAPVKYEEDEFHVFKEAYLGPADPKEPVLHAFNPALGADCKGQVKAKLAGGDSDGGELLGEYPGIPELSALEDVALLQAPQPPACNVHFLSSAAPAHRSPAVLPLGAWVLEGASHPGVRMIPVEIKEAGGTTTSNNPEEATLQNAAAQESCCKFPSSQELEDASCCSLKKDSNPMVICQLKGGTQMLCIDNSRTRELKALHLVPQYQDQNNYLQSDVPKPMTALVGRFLPASTKLNLITQQLEGALPSVVNGSAFPSGSTLPGPPKITLAGYCDCFASGDFCNNCNCNNCCNNLHHDIERFKAIKACLGRNPEAFQPKIGKGQLGNVKPQHNKGCNCRRSGCLKNYCECYEAQIMCSSICKCIGCKNYEESPERKTLMSMPNYMQTGGLEGSHYLPPTKFSGLPRFSHDRRPSSCISWEVVEATCACLLAQGEEAEKEHCSKCLAEQMILEEFGRCLSQILHTEFKSKGLKME [L128A;L129A;L180A;L181A], for which the “effect of a mutation on the interaction” value is recorded as “disrupting interaction strength”.

On to MEEGPLPGGLPSPEDAMVTELLSPEGPFASENIGLKAPVKYEEDEFHVFKEAYLGPADPKEPVLHAFNPALGADCKGQVKAKLAGGDSDGGELLGEYPGIPELSALEDVALLQAPQPPACNVHFLSSLLPAHRSPAVLPLGAWVLEGASHPGVRMIPVEIKEAGGTTTSNNPEEATLQNAAAQESCCKFPSSQELEDASCCSLKKDSNPMVICQLKGGTQMLCIDNSRTRELKALHLVPQYQDQNNYLQSDVPKPMTALVGRFLPASTKLNLITQQLEGALPSVVNGSAFPSGSTLPGPPKITLAGYCDCFASGDFCNNCNCNNCCNNLHHDIERFKAIKACLGRNPEAFQPKIGKGQLGNVKPQHNKGCNCRRSGCLKNYCECYEAQIMCSSICKCIGCKNYEESPERKTLMSMPNYMQTGGLEGSHYLPPTKFSGLPRFSHDRRPSSCISWEVVEATCACLLAQGEEAEKEHCSKCLAEQMILEEFGRCLSQILHTEFKSKGLKME [L180A;L181A], for which the “effect of a mutation on the interaction” value is listed as “with no effect”.

Consider MEEGPLPGGLPSPEDAMVTELLSPEGPFASENIGLKAPVKYEEDEFHVFKEAYLGPADPKEPVLHAFNPALGADCKGQVKAKLAGGDSDGGELLGEYPGIPELSALEDVALLQAPQPPACNVHFLSSAAPAHRSPAVLPLGAWVLEGASHPGVRMIPVEIKEAGGTTTSNNPEEATLQNLLAQESCCKFPSSQELEDASCCSLKKDSNPMVICQLKGGTQMLCIDNSRTRELKALHLVPQYQDQNNYLQSDVPKPMTALVGRFLPASTKLNLITQQLEGALPSVVNGSAFPSGSTLPGPPKITLAGYCDCFASGDFCNNCNCNNCCNNLHHDIERFKAIKACLGRNPEAFQPKIGKGQLGNVKPQHNKGCNCRRSGCLKNYCECYEAQIMCSSICKCIGCKNYEESPERKTLMSMPNYMQTGGLEGSHYLPPTKFSGLPRFSHDRRPSSCISWEVVEATCACLLAQGEEAEKEHCSKCLAEQMILEEFGRCLSQILHTEFKSKGLKME [L128A;L129A], for which the “effect of a mutation on the interaction” value is on record as “with no effect”.

A further test covers variants of B2. Particulars: with prgc1_human PPARGC1A.
Turning to E962A, the “effect of a mutation on the interaction” value is recorded as “disrupting interaction strength”.

The variants in the next test derive from B2. Particulars: with prgc1_human PPARGC1A. The source holds these as a separate data set.
Turning to E962A, the “effect of a mutation on the interaction” value was “decreasing interaction strength”.

Variants of B3 are the subject of a further test. Particulars: with mtl5_human TESMIN.
E962A: the “effect of a mutation on the interaction” value is listed as “decreasing interaction strength”.

For the origin of these results see IntAct's records for PubMed 24907116.
